Several values for one entry are separate records, joined by “and”; a condition that tells them apart may be missing. Equal values may be shown once.
Legend:
FHCS-1 (RSV strain A2) [1] = target: FHCS-1 (RSV strain A2) (UniProt P03420); experiment: ELISA; F coated 1250 ng/ml; stored 37° C. 4 W
FHCS-4 (RSV strain A2) [2] = target: FHCS-4 (RSV strain A2) (UniProt P03420); experiment: ELISA; F coated 1250 ng/ml; stored 37° C. 4 W
FHCS-2 (RSV strain A2) [3] = target: FHCS-2 (RSV strain A2) (UniProt P03420); experiment: ELISA; F coated 1250 ng/ml; stored 37° C. 4 W
FHCS-1 (RSV strain A2) [4] = target: FHCS-1 (RSV strain A2) (UniProt P03420); experiment: ELISA; F coated 625 ng/ml; stored -80° C.
FHCS-4 (RSV strain A2) [5] = target: FHCS-4 (RSV strain A2) (UniProt P03420); experiment: ELISA; F coated 625 ng/ml; stored -80° C.
FHCS-2 (RSV strain A2) [6] = target: FHCS-2 (RSV strain A2) (UniProt P03420); experiment: ELISA; F coated 625 ng/ml; stored -80° C.
FHCS-1 (RSV strain A2) [7] = target: FHCS-1 (RSV strain A2) (UniProt P03420); experiment: ELISA; F coated 2500 ng/ml; stored 37° C. 4 W
FHCS-4 (RSV strain A2) [8] = target: FHCS-4 (RSV strain A2) (UniProt P03420); experiment: ELISA; F coated 2500 ng/ml; stored 37° C. 4 W
FHCS-2 (RSV strain A2) [9] = target: FHCS-2 (RSV strain A2) (UniProt P03420); experiment: ELISA; F coated 2500 ng/ml; stored 37° C. 4 W
FHCS-1 (RSV strain A2) [10] = target: FHCS-1 (RSV strain A2) (UniProt P03420); experiment: ELISA; F coated 2500 ng/ml; stored 37° C. 2 W
FHCS-4 (RSV strain A2) [11] = target: FHCS-4 (RSV strain A2) (UniProt P03420); experiment: ELISA; F coated 2500 ng/ml; stored 37° C. 2 W
FHCS-2 (RSV strain A2) [12] = target: FHCS-2 (RSV strain A2) (UniProt P03420); experiment: ELISA; F coated 2500 ng/ml; stored 37° C. 2 W
FHCS-1 (RSV strain A2) [13] = target: FHCS-1 (RSV strain A2) (UniProt P03420); experiment: ELISA; F coated 1250 ng/ml; stored -80° C.
FHCS-4 (RSV strain A2) [14] = target: FHCS-4 (RSV strain A2) (UniProt P03420); experiment: ELISA; F coated 1250 ng/ml; stored -80° C.
FHCS-2 (RSV strain A2) [15] = target: FHCS-2 (RSV strain A2) (UniProt P03420); experiment: ELISA; F coated 1250 ng/ml; stored -80° C.
FHCS-4 (RSV strain A2) [16] = target: FHCS-4 (RSV strain A2) (UniProt P03420); experiment: ELISA; F coated 312.5 ng/ml; stored -80° C.
FHCS-2 (RSV strain A2) [17] = target: FHCS-2 (RSV strain A2) (UniProt P03420); experiment: ELISA; F coated 312.5 ng/ml; stored -80° C.
FHCS-1 (RSV strain A2) [18] = target: FHCS-1 (RSV strain A2) (UniProt P03420); experiment: ELISA; F coated 156.3 ng/ml; stored 37° C. 4 W
FHCS-4 (RSV strain A2) [19] = target: FHCS-4 (RSV strain A2) (UniProt P03420); experiment: ELISA; F coated 156.3 ng/ml; stored 37° C. 4 W
FHCS-2 (RSV strain A2) [20] = target: FHCS-2 (RSV strain A2) (UniProt P03420); experiment: ELISA; F coated 156.3 ng/ml; stored 37° C. 4 W
FHCS-1 (RSV strain A2) [21] = target: FHCS-1 (RSV strain A2) (UniProt P03420); experiment: ELISA; F coated 2500 ng/ml; stored -80° C.
FHCS-4 (RSV strain A2) [22] = target: FHCS-4 (RSV strain A2) (UniProt P03420); experiment: ELISA; F coated 2500 ng/ml; stored -80° C.
FHCS-2 (RSV strain A2) [23] = target: FHCS-2 (RSV strain A2) (UniProt P03420); experiment: ELISA; F coated 2500 ng/ml; stored -80° C.
FHCS-1 (RSV strain A2) [24] = target: FHCS-1 (RSV strain A2) (UniProt P03420); experiment: ELISA; F coated 312.5 ng/ml; stored 37° C. 4 W
FHCS-4 (RSV strain A2) [25] = target: FHCS-4 (RSV strain A2) (UniProt P03420); experiment: ELISA; F coated 312.5 ng/ml; stored 37° C. 4 W
FHCS-2 (RSV strain A2) [26] = target: FHCS-2 (RSV strain A2) (UniProt P03420); experiment: ELISA; F coated 312.5 ng/ml; stored 37° C. 4 W
FHCS-1 (RSV strain A2) [27] = target: FHCS-1 (RSV strain A2) (UniProt P03420); experiment: ELISA; F coated 625 ng/ml; stored 37° C. 4 W
FHCS-4 (RSV strain A2) [28] = target: FHCS-4 (RSV strain A2) (UniProt P03420); experiment: ELISA; F coated 625 ng/ml; stored 37° C. 4 W
FHCS-2 (RSV strain A2) [29] = target: FHCS-2 (RSV strain A2) (UniProt P03420); experiment: ELISA; F coated 625 ng/ml; stored 37° C. 4 W
FHCS-1 (RSV strain A2) [30] = target: FHCS-1 (RSV strain A2) (UniProt P03420); experiment: ELISA; F coated 10000 ng/ml; stored -80° C.
FHCS-2 (RSV strain A2) [31] = target: FHCS-2 (RSV strain A2) (UniProt P03420); experiment: ELISA; F coated 10000 ng/ml; stored -80° C.
FHCS-1 (RSV strain A2) [32] = target: FHCS-1 (RSV strain A2) (UniProt P03420); experiment: ELISA; F coated 625 ng/ml; stored -80° C.; remark: listed apart in the source
FHCS-4 (RSV strain A2) [33] = target: FHCS-4 (RSV strain A2) (UniProt P03420); experiment: ELISA; F coated 625 ng/ml; stored -80° C.; remark: listed apart in the source
FHCS-2 (RSV strain A2) [34] = target: FHCS-2 (RSV strain A2) (UniProt P03420); experiment: ELISA; F coated 625 ng/ml; stored -80° C.; remark: listed apart in the source
FHCS-1 (RSV strain A2) [35] = target: FHCS-1 (RSV strain A2) (UniProt P03420); experiment: ELISA; F coated 312.5 ng/ml; stored -80° C.
FHCS-4 (RSV strain A2) [36] = target: FHCS-4 (RSV strain A2) (UniProt P03420); experiment: ELISA; F coated 312.5 ng/ml; stored -80° C.; remark: listed apart in the source
FHCS-2 (RSV strain A2) [37] = target: FHCS-2 (RSV strain A2) (UniProt P03420); experiment: ELISA; F coated 312.5 ng/ml; stored -80° C.; remark: listed apart in the source

Substance | OD value (FHCS-1 (RSV strain A2) [1]) | OD value (FHCS-4 (RSV strain A2) [2]) | OD value (FHCS-2 (RSV strain A2) [3]) | OD value (FHCS-1 (RSV strain A2) [4]) | OD value (FHCS-4 (RSV strain A2) [5]) | OD value (FHCS-2 (RSV strain A2) [6]) | OD value (FHCS-1 (RSV strain A2) [7]) | OD value (FHCS-4 (RSV strain A2) [8]) | OD value (FHCS-2 (RSV strain A2) [9]) | OD value (FHCS-1 (RSV strain A2) [13]) | OD value (FHCS-4 (RSV strain A2) [14]) | OD value (FHCS-2 (RSV strain A2) [15]) | OD value (FHCS-4 (RSV strain A2) [16]) | OD value (FHCS-2 (RSV strain A2) [17]) | OD value (FHCS-1 (RSV strain A2) [21]) | OD value (FHCS-4 (RSV strain A2) [22]) | OD value (FHCS-2 (RSV strain A2) [23]) | OD value (FHCS-1 (RSV strain A2) [24]) | OD value (FHCS-4 (RSV strain A2) [25]) | OD value (FHCS-2 (RSV strain A2) [26]) | further results
Synagis® (antibody) | 1.17 OD and 1.22 OD | 1.05 OD and 0.985 OD | 0.995 OD and 0.91 OD | 0.17 OD and 0.181 OD | 0.094 OD and 0.066 OD | 0.209 OD and 0.208 OD | 1.91 OD and 2.11 OD | 1.8 OD and 1.78 OD | 1.82 OD and 1.84 OD | 0.357 OD and 0.35 OD | 0.252 OD and 0.209 OD | 0.572 OD and 0.767 OD | 0.052 OD and 0.033 OD | 0.089 OD and 0.108 OD | 1.35 OD | 0.825 OD and 0.743 OD | 1.65 OD and 1.91 OD | 0.142 OD and 0.168 OD | 0.138 OD and 0.12 OD | 0.154 OD and 0.143 OD | OD value (FHCS-1 (RSV strain A2) [10]): 1.88 OD and 1.43 OD; OD value (FHCS-4 (RSV strain A2) [11]): 1.46 OD and 1.58 OD; OD value (FHCS-2 (RSV strain A2) [12]): 1.6 OD and 1.85 OD; OD value (FHCS-1 (RSV strain A2) [18]): 0.055 OD and 0.062 OD; OD value (FHCS-4 (RSV strain A2) [19]): 0.05 OD and 0.048 OD; OD value (FHCS-2 (RSV strain A2) [20]): 0.069 OD and 0.058 OD; OD value (FHCS-1 (RSV strain A2) [27]): 0.324 OD and 0.612 OD; OD value (FHCS-4 (RSV strain A2) [28]): 0.378 OD and 0.389 OD; OD value (FHCS-2 (RSV strain A2) [29]): 0.42 OD and 0.4 OD
AM14 monoclonal antibody | 0.018 OD and 0.024 OD | 0.007 OD and 0.008 OD | 0.025 OD and 0.019 OD | 0.003 OD and 0.005 OD | 0.007 OD | 0.005 OD and 0.006 OD | 0.109 OD and 0.096 OD | 0.045 OD and 0.019 OD | 0.45 OD and 0.185 OD | 0.006 OD | 0.013 OD and 0.011 OD | 0.009 OD and 0.013 OD | 0.004 OD and 0.007 OD | 0.005 OD | 0.021 OD and 0.03 OD | 0.04 OD and 0.028 OD | 0.02 OD and 0.024 OD | 0.005 OD | 0.004 OD and 0.007 OD | 0.005 OD | OD value (FHCS-1 (RSV strain A2) [30]): 1.82 OD and 2.12 OD; OD value (FHCS-2 (RSV strain A2) [31]): 1.88 OD and 2.15 OD; OD value (FHCS-1 (RSV strain A2) [32]): 0.004 OD and 0.007 OD; OD value (FHCS-4 (RSV strain A2) [33]): 0.005 OD and 0.006 OD; OD value (FHCS-2 (RSV strain A2) [34]): 0.008 OD; OD value (FHCS-1 (RSV strain A2) [35]): 0.003 OD and 0.006 OD; OD value (FHCS-4 (RSV strain A2) [36]): 0.008 OD and 0.006 OD; OD value (FHCS-2 (RSV strain A2) [37]): 0.007 OD; OD value (FHCS-1 (RSV strain A2) [27]): 0.006 OD and 0.008 OD; OD value (FHCS-4 (RSV strain A2) [28]): 0.006 OD and 0.007 OD; OD value (FHCS-2 (RSV strain A2) [29]): 0.005 OD and 0.006 OD
